Target: T1, Clf40 (A domain of ClfA, AA 40-559, recombinant, six-histidine fusion) (Staphylococcus aureus strain Newman, UniProt Q53653 40-559)
T1 construct: also called ClfA 40
T1 sequence: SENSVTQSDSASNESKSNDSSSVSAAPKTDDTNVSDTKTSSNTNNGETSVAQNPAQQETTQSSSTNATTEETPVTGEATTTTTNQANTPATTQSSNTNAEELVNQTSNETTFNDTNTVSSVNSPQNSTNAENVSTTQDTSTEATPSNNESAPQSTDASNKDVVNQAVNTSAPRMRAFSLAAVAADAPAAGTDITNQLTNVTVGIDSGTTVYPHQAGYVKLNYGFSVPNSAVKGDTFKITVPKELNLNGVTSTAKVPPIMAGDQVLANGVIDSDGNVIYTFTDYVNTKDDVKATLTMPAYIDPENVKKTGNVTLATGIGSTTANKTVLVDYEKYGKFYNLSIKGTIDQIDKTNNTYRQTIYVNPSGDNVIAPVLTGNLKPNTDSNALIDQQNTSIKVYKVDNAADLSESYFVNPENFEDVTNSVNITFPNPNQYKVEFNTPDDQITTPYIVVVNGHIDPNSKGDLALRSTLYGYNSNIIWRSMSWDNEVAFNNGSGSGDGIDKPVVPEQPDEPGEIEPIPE
Test: Biacore 3000, Mab captured by rabbit anti-mouse Fc, Clf protein in flow

B1: Monoclonal antibody 12-9 (antibody, V domains shown)
VH: QVQLKESGPGLVAPSQSLSITCAISGFSLSRYSVHWVRQPPGKGLEWLGMIWGGGNTDYNSALKSRLSISKDNSKSQVFLKMNSLQTDDTAMYYCARKGEFYYGYDGFVYWGQGTLVTVSA
VL: NIMMTQSPSSLAVSAGEKVTMSCKSSQSVLYSSNQKNYLAWYQQKPGQSPKLLIYWASTRESGVPDRFTGSGSGTDFTLTISSVQAEDLAVYYCHQYLSSYTFGGGTKLEIK
notes: also called F12-9; Mab 12-9
Q: With B1 as the binder, how does the kon read?
A: Its kon is 774000 M⁻¹ s⁻¹.
